± gives the uncertainty stated by the source.
Assay: protein stability index of a GFP-peptide fusion (yeast GPS) (PSI 1-4); higher = more stable; sorted into four equal gates, so the index is relative within each strain
Settings: doa10∆
Outline: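 Sequencing reads from sorted gates were used to score each peptide. The library consisted of tiled 17-residue yeast protein peptides fused downstream of GFP on a Cherry-expressing plasmid, pooled and carried in yeast. Mid-log cultures in leucine-free medium were split into four equal gates by GFP/Cherry ratio, and each gate's plasmids were PCR-amplified and Illumina-sequenced. The protein stability index adds up, over all gates, the read frequency multiplied by the gate number.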
In the case of AAASLPSKKLKTEDGFV [RPC82], the protein stability index is reported as 3.21 ± 0.1.
With AACEKLLPPIKIELIKN [RPN12] the protein stability index was 1.98 ± 0.19.
Sequence AADTSIVEQDKSMELFY [YJL039C/NUP192] has a protein stability index of 2.07 ± 0.11.
Sequence AAESKKYRQTKLSKEER [RPL5] has a protein stability index of 3.1 ± 0.23.
Sequence AAPAATSAASGDAAPAE [RPP0] has a protein stability index of 2.6 ± 0.091.
AAPLLALLRENQDSVKT [RPN2] gave a protein stability index of 2.55 ± 0.18.
For AARHRARFRSIHILKVA [RPL20A], the protein stability index was 1.22 ± 0.077.
AASFKKLYKTPIPIPAF [PRE10] showed a protein stability index of 2.54 ± 0.14.
AASSQVSIVKLDTQLIT [SNF12] gave a protein stability index of 1.69 ± 0.08.
AAVIMRCKIYFFYLRIS [PCI8] gave a protein stability index of 1.33 ± 0.067.
Work on AAVVKTSSRQTVFLPMV [RPT5] yielded a protein stability index of 3.02 ± 0.051.
Work on ADDADIEMKDVSSKPSK [MED1] yielded a protein stability index of 3.17 ± 0.1.
In the case of ADDHASVQINVAKVDEE [RPS21A], the protein stability index is reported as 3.26 ± 0.062.
In the case of ADEMGLGKTIQTISLLT [SNF2], the protein stability index is reported as 1.73 ± 0.092.
Work on ADKIVDEFPELKEPVED [NUT2] yielded a protein stability index of 3.71 ± 0.15.
Work on ADKRGVLTGGYLDQHKR [SMC3] yielded a protein stability index of 2.46 ± 0.11.
ADKSLPSSMATLLKNLR [YJR042W/NUP85] gave a protein stability index of 2.97 ± 0.081.
Sequence ADLERFFLSIYFFYASR [YJL039C/NUP192] has a protein stability index of 1.68 ± 0.073.
ADLKKGKDLSPAINYTK [QCR2] gave a protein stability index of 3.26 ± 0.13.
Sequence AEKKIPLVIRRYLPDGS [RPO26] has a protein stability index of 2.79 ± 0.09.
AELKLAGEFGLKNKREI [RPS9B] showed a protein stability index of 3.08 ± 0.11.
For AETIILSSAGKNSSVSS [SRB5], the protein stability index was 1.65 ± 0.063.
With AEVNGGDDEATEIISTL [BRR2] the protein stability index was 3.33 ± 0.094.
Sequence AEWSLVRIYSGLLKRGD [SNU114] has a protein stability index of 2.95 ± 0.093.
Work on AEYAQLLAKRLSERKAE [RPS6A] yielded a protein stability index of 2.41 ± 0.051.
For AFADRLGQYVQAHTLYN [PRE10], the protein stability index was 2.22 ± 0.085.
AFAFCIPVYCFSHPAHQ [YCG1] showed a protein stability index of 1.64 ± 0.045.
For AFGFVDRTLPHFSKDDY [RPO21], the protein stability index was 2.81 ± 0.068.
For AFGGLNFGGGNNTTPSS [YJL041W/NSP1], the protein stability index was 1.32 ± 0.061.
In the case of AFIFGLQDELKELQLEK [SMC3], the protein stability index is reported as 3.23 ± 0.12.
Sequence AFLSFLAYRNYWTQYLG [YJL039C/NUP192] has a protein stability index of 1.33 ± 0.057.
Work on AFSSVEHIIRDVHNGYI [COB] yielded a protein stability index of 3.16 ± 0.23.
In the case of AFVEFGASVIAGGQRIV [SWP82], the protein stability index is reported as 2.21 ± 0.13.
In the case of AGAGEANGTVVSFIKNG [MTR3], the protein stability index is reported as 1.79 ± 0.16.
AGALNLASPEVKVHMDS [DIS3] gave a protein stability index of 3.06 ± 0.083.
For AGASPMVNTQQPIVTGT [PRE4], the protein stability index was 2.67 ± 0.17.
In the case of AGGGESDSALILMYKGF [UBP6], the protein stability index is reported as 3.29 ± 0.091.
AGKFPTPVSHNDDLYGK [RPL1A] gave a protein stability index of 2.26 ± 0.041.
AGKSLVSKSEPKFFLGE [QCR2] gave a protein stability index of 3.41 ± 0.09.

Same assay, conditions: pdr5∆
AAASLPSKKLKTEDGFV [RPC82] showed a protein stability index of 3.09 ± 0.1.
Sequence AACEKLLPPIKIELIKN [RPN12] has a protein stability index of 2.25 ± 0.094.
In the case of AADTSIVEQDKSMELFY [YJL039C/NUP192], the protein stability index is reported as 2.61 ± 0.13.
AAPAATSAASGDAAPAE [RPP0] gave a protein stability index of 2.38 ± 0.049.
Sequence AAPLLALLRENQDSVKT [RPN2] has a protein stability index of 3.23 ± 0.1.
AARHRARFRSIHILKVA [RPL20A] gave a protein stability index of 1.18 ± 0.042.
AASFKKLYKTPIPIPAF [PRE10] showed a protein stability index of 3.15 ± 0.12.
Sequence AASSQVSIVKLDTQLIT [SNF12] has a protein stability index of 1.74 ± 0.07.
AASVIGMLVALGRLSVR [RPC82] gave a protein stability index of 1.32 ± 0.07.
Work on AAVIMRCKIYFFYLRIS [PCI8] yielded a protein stability index of 1.35 ± 0.06.
Work on AAVVKTSSRQTVFLPMV [RPT5] yielded a protein stability index of 3.15 ± 0.056.
ADDADIEMKDVSSKPSK [MED1] gave a protein stability index of 3.29 ± 0.11.
ADDHASVQINVAKVDEE [RPS21A] gave a protein stability index of 3.08 ± 0.072.
ADEMGLGKTIQTISLLT [SNF2] gave a protein stability index of 2.5 ± 0.086.
With ADKIVDEFPELKEPVED [NUT2] the protein stability index was 3.52 ± 0.11.
ADKRGVLTGGYLDQHKR [SMC3] gave a protein stability index of 2.54 ± 0.1.
With ADKSLPSSMATLLKNLR [YJR042W/NUP85] the protein stability index was 2.81 ± 0.077.
Work on ADLERFFLSIYFFYASR [YJL039C/NUP192] yielded a protein stability index of 1.12 ± 0.13.
Sequence ADLKKGKDLSPAINYTK [QCR2] has a protein stability index of 3.36 ± 0.08.
With ADLRPLQIKSIREIDVT [RPS7B] the protein stability index was 2.72 ± 0.26.
With AEKKIPLVIRRYLPDGS [RPO26] the protein stability index was 2.54 ± 0.12.
Sequence AELKLAGEFGLKNKREI [RPS9B] has a protein stability index of 3.21 ± 0.15.
For AETIILSSAGKNSSVSS [SRB5], the protein stability index was 2.17 ± 0.051.
Work on AEVNGGDDEATEIISTL [BRR2] yielded a protein stability index of 3.1 ± 0.13.
With AEWSLVRIYSGLLKRGD [SNU114] the protein stability index was 3.27 ± 0.1.
In the case of AEYAQLLAKRLSERKAE [RPS6A], the protein stability index is reported as 2.11 ± 0.048.
AFADRLGQYVQAHTLYN [PRE10] showed a protein stability index of 1.95 ± 0.066.
For AFAFCIPVYCFSHPAHQ [YCG1], the protein stability index was 1.81 ± 0.044.
AFGFVDRTLPHFSKDDY [RPO21] showed a protein stability index of 3.17 ± 0.05.
With AFGGLNFGGGNNTTPSS [YJL041W/NSP1] the protein stability index was 1.29 ± 0.064.
AFIFGLQDELKELQLEK [SMC3] showed a protein stability index of 3.47 ± 0.11.
Sequence AFLSFLAYRNYWTQYLG [YJL039C/NUP192] has a protein stability index of 1.26 ± 0.04.
Work on AFSSVEHIIRDVHNGYI [COB] yielded a protein stability index of 3 ± 0.26.
AFVEFGASVIAGGQRIV [SWP82] gave a protein stability index of 2.35 ± 0.1.
AGAGEANGTVVSFIKNG [MTR3] showed a protein stability index of 2.53 ± 0.2.
For AGALNLASPEVKVHMDS [DIS3], the protein stability index was 3.4 ± 0.069.
AGASPMVNTQQPIVTGT [PRE4] gave a protein stability index of 2.67 ± 0.29.
For AGGGESDSALILMYKGF [UBP6], the protein stability index was 3.45 ± 0.08.
Sequence AGKFPTPVSHNDDLYGK [RPL1A] has a protein stability index of 2.62 ± 0.056.
Work on AGKSLVSKSEPKFFLGE [QCR2] yielded a protein stability index of 3.31 ± 0.067.
